From publication doi:10.1101/2025.10.06.680828 (bioRxiv, 2025)

Molecular target: the molecule itself
Assay: mass photometry

B1: human Drp1 isoform 8 (natural protein)
chain: MEALIPVINKLQDVFNTVGADIIQLPQIVVVGTQSSGKSSVLESLVGRDLLPRGTGIVTRRPLILQLVHVSQEDKRKTTGEENDPATWKNSRHLSKGVEAEEWGKFLHTKNKLYTDFDEIRQEIENETERISGNNKGVSPEPIHLKIFSPNVVNLTLVDLPGMTKVPVGDQPKDIELQIRELILRFISNPNSIILAVTAANTDMATSEALKISREVDPDGRRTLAVITKLDLMDAGTDAMDVLMGRVIPVKLGIIGVVNRSQLDINNKKSVTDSIRDEYAFLQKKYPSLANRNGTKYLARTLNRLLMHHIRDCLPELKTRINVLAAQYQSLLNSYGEPVDDKSATLLQLITKFATEYCNTIEGTAKYIETSELCGGARICYIFHETFGRTLESVDPLGGLNTIDILTAIRNATGPRPALFVPEVSFELLVKRQIKRLEEPSLRCVELVHEEMQRIIQHCSNYSTQELLRFPKLHDAIVEVVTCLLRKRLPVTNEMVHNLVAIELAYINTKHPDFADACGLMNNNIEEQRRNRLARELPSAVSRDKVASGGGGVGDGVQEPTTGNWRGMLKTSKAEELLAEEKSKPIPIMPASPQKGHAVNLLDVPVPVARKLSAREQRDCEVIERLIKSYFLIVRKNIQDSVPKAVMHFLVNHVKDTLQSELVGQLYKSSLLDDLLTESEDMAQRRKEAADMLKALQGASQIIAEIRETHLW
stoichiometry N: 2

B2: human Drp1 isoform 5 (natural protein)
chain: MEALIPVINKLQDVFNTVGADIIQLPQIVVVGTQSSGKSSVLESLVGRDLLPRGTGIVTRRPLILQLVHVSQEDKRKTTGEENDPATWKNSRHLSKGVEAEEWGKFLHTKNKLYTDFDEIRQEIENETERISGNNKGVSPEPIHLKIFSPNVVNLTLVDLPGMTKVPVGDQPKDIELQIRELILRFISNPNSIILAVTAANTDMATSEALKISREVDPDGRRTLAVITKLDLMDAGTDAMDVLMGRVIPVKLGIIGVVNRSQLDINNKKSVTDSIRDEYAFLQKKYPSLANRNGTKYLARTLNRLLMHHIRDCLPELKTRINVLAAQYQSLLNSYGEPVDDKSATLLQLITKFATEYCNTIEGTAKYIETSELCGGARICYIFHETFGRTLESVDPLGGLNTIDILTAIRNATGPRPALFVPEVSFELLVKRQIKRLEEPSLRCVELVHEEMQRIIQHCSNYSTQELLRFPKLHDAIVEVVTCLLRKRLPVTNEMVHNLVAIELAYINTKHPDFADACGLMNNNIEEQRRNRLARELPSAVSRDKSSKVPSALAPASQEPSPAASAEADGKLIQDSRRETKNVASGGGGVGDGVQEPTTGNWRGMLKTSKAEELLAEEKSKPIPIMPASPQKGHAVNLLDVPVPVARKLSAREQRDCEVIERLIKSYFLIVRKNIQDSVPKAVMHFLVNHVKDTLQSELVGQLYKSSLLDDLLTESEDMAQRRKEAADMLKALQGASQIIAEIRETHLW
stoichiometry N: 2

B3: human Drp1 isoform 4 (natural protein)
chain: MEALIPVINKLQDVFNTVGADIIQLPQIVVVGTQSSGKSSVLESLVGRDLLPRGTGIVTRRPLILQLVHVSQEDKRKTTGEENGVEAEEWGKFLHTKNKLYTDFDEIRQEIENETERISGNNKGVSPEPIHLKIFSPNVVNLTLVDLPGMTKVPVGDQPKDIELQIRELILRFISNPNSIILAVTAANTDMATSEALKISREVDPDGRRTLAVITKLDLMDAGTDAMDVLMGRVIPVKLGIIGVVNRSQLDINNKKSVTDSIRDEYAFLQKKYPSLANRNGTKYLARTLNRLLMHHIRDCLPELKTRINVLAAQYQSLLNSYGEPVDDKSATLLQLITKFATEYCNTIEGTAKYIETSELCGGARICYIFHETFGRTLESVDPLGGLNTIDILTAIRNATGPRPALFVPEVSFELLVKRQIKRLEEPSLRCVELVHEEMQRIIQHCSNYSTQELLRFPKLHDAIVEVVTCLLRKRLPVTNEMVHNLVAIELAYINTKHPDFADACGLMNNNIEEQRRNRLARELPSAVSRDKSSKVPSALAPASQEPSPAASAEADGKVASGGGGVGDGVQEPTTGNWRGMLKTSKAEELLAEEKSKPIPIMPASPQKGHAVNLLDVPVPVARKLSAREQRDCEVIERLIKSYFLIVRKNIQDSVPKAVMHFLVNHVKDTLQSELVGQLYKSSLLDDLLTESEDMAQRRKEAADMLKALQGASQIIAEIRETHLW
stoichiometry N: 2

B4: human Drp1 isoform 2 (natural protein)
chain: MEALIPVINKLQDVFNTVGADIIQLPQIVVVGTQSSGKSSVLESLVGRDLLPRGTGIVTRRPLILQLVHVSQEDKRKTTGEENGVEAEEWGKFLHTKNKLYTDFDEIRQEIENETERISGNNKGVSPEPIHLKIFSPNVVNLTLVDLPGMTKVPVGDQPKDIELQIRELILRFISNPNSIILAVTAANTDMATSEALKISREVDPDGRRTLAVITKLDLMDAGTDAMDVLMGRVIPVKLGIIGVVNRSQLDINNKKSVTDSIRDEYAFLQKKYPSLANRNGTKYLARTLNRLLMHHIRDCLPELKTRINVLAAQYQSLLNSYGEPVDDKSATLLQLITKFATEYCNTIEGTAKYIETSELCGGARICYIFHETFGRTLESVDPLGGLNTIDILTAIRNATGPRPALFVPEVSFELLVKRQIKRLEEPSLRCVELVHEEMQRIIQHCSNYSTQELLRFPKLHDAIVEVVTCLLRKRLPVTNEMVHNLVAIELAYINTKHPDFADACGLMNNNIEEQRRNRLARELPSAVSRDKLIQDSRRETKNVASGGGGVGDGVQEPTTGNWRGMLKTSKAEELLAEEKSKPIPIMPASPQKGHAVNLLDVPVPVARKLSAREQRDCEVIERLIKSYFLIVRKNIQDSVPKAVMHFLVNHVKDTLQSELVGQLYKSSLLDDLLTESEDMAQRRKEAADMLKALQGASQIIAEIRETHLW
stoichiometry N: 2

B5: human Drp1 isoform 3 (natural protein)
chain: MEALIPVINKLQDVFNTVGADIIQLPQIVVVGTQSSGKSSVLESLVGRDLLPRGTGIVTRRPLILQLVHVSQEDKRKTTGEENGVEAEEWGKFLHTKNKLYTDFDEIRQEIENETERISGNNKGVSPEPIHLKIFSPNVVNLTLVDLPGMTKVPVGDQPKDIELQIRELILRFISNPNSIILAVTAANTDMATSEALKISREVDPDGRRTLAVITKLDLMDAGTDAMDVLMGRVIPVKLGIIGVVNRSQLDINNKKSVTDSIRDEYAFLQKKYPSLANRNGTKYLARTLNRLLMHHIRDCLPELKTRINVLAAQYQSLLNSYGEPVDDKSATLLQLITKFATEYCNTIEGTAKYIETSELCGGARICYIFHETFGRTLESVDPLGGLNTIDILTAIRNATGPRPALFVPEVSFELLVKRQIKRLEEPSLRCVELVHEEMQRIIQHCSNYSTQELLRFPKLHDAIVEVVTCLLRKRLPVTNEMVHNLVAIELAYINTKHPDFADACGLMNNNIEEQRRNRLARELPSAVSRDKVASGGGGVGDGVQEPTTGNWRGMLKTSKAEELLAEEKSKPIPIMPASPQKGHAVNLLDVPVPVARKLSAREQRDCEVIERLIKSYFLIVRKNIQDSVPKAVMHFLVNHVKDTLQSELVGQLYKSSLLDDLLTESEDMAQRRKEAADMLKALQGASQIIAEIRETHLW
stoichiometry N: 2

B6: human Drp1 isoform 6 (natural protein)
chain: MEALIPVINKLQDVFNTVGADIIQLPQIVVVGTQSSGKSSVLESLVGRDLLPRGTGIVTRRPLILQLVHVSQEDKRKTTGEENDPATWKNSRHLSKGVEAEEWGKFLHTKNKLYTDFDEIRQEIENETERISGNNKGVSPEPIHLKIFSPNVVNLTLVDLPGMTKVPVGDQPKDIELQIRELILRFISNPNSIILAVTAANTDMATSEALKISREVDPDGRRTLAVITKLDLMDAGTDAMDVLMGRVIPVKLGIIGVVNRSQLDINNKKSVTDSIRDEYAFLQKKYPSLANRNGTKYLARTLNRLLMHHIRDCLPELKTRINVLAAQYQSLLNSYGEPVDDKSATLLQLITKFATEYCNTIEGTAKYIETSELCGGARICYIFHETFGRTLESVDPLGGLNTIDILTAIRNATGPRPALFVPEVSFELLVKRQIKRLEEPSLRCVELVHEEMQRIIQHCSNYSTQELLRFPKLHDAIVEVVTCLLRKRLPVTNEMVHNLVAIELAYINTKHPDFADACGLMNNNIEEQRRNRLARELPSAVSRDKSSKVPSALAPASQEPSPAASAEADGKVASGGGGVGDGVQEPTTGNWRGMLKTSKAEELLAEEKSKPIPIMPASPQKGHAVNLLDVPVPVARKLSAREQRDCEVIERLIKSYFLIVRKNIQDSVPKAVMHFLVNHVKDTLQSELVGQLYKSSLLDDLLTESEDMAQRRKEAADMLKALQGASQIIAEIRETHLW
stoichiometry N: 2
